# Reference: the supplement of paper PMC10201428
# ± gives the standard deviation of the averaged measurements.
# Columns and labels:
# [1] = system: VchCAST RNA-guided transposition machinery (E. coli BL21(DE3) host, lacZ target); experiment: relative integration efficiency (T-LR orientation) vs wild-type transposon end (log2 (normalized fold change)); transposon end mutated: right end (5 bp flank + 75 bp right end); higher = more efficient transposition
# Outline: (§1)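 Each barcoded pool, 1549 left-end or 1849 right-end transposon variants in a pUC57 mini-transposon donor, went into E. coli BL21(DE3) with a T7-driven effector plasmid (CRISPR array, tniQ-cas8-cas7-cas6, tnsA-tnsB-tnsC). Plates contained 0.1 mM IPTG and were held at 37°C for 18 h. Input plasmids and genomic integration junctions were PCR-amplified and read by Illumina sequencing, with two biological output replicates and four reference barcodes. Relative integration efficiency is the fold change of output over input barcode abundance, normalised to the reference barcodes and log-transformed.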
# [2] = system: VchCAST RNA-guided transposition machinery (E. coli BL21(DE3) host, lacZ target); experiment: relative integration efficiency (T-RL orientation) vs wild-type transposon end (log2 (normalized fold change)); transposon end mutated: right end (5 bp flank + 75 bp right end); higher = more efficient transposition
# Outline: as §1
Sequence,relative integration efficiency (log2) [1],relative integration efficiency (log2) [2]
ACATTTGTTGATACAACCATAAAACGATAATTACACCCATAAATGGATAATTATCACACCCAATTTAACTATAACGCTCTGATCATAGTCAGACCAACATTGCTACGACCCGTATTCGCACCGACAC,1.52 ± 0.035,-1.18 ± 0.21
ACATTTGTTGATACAACCATAAAATGATAATTACACCCATAAATTGATCCGGATCACACCCATAAATTGATATTGCCTCTGATCATAGTCAGACCAACATTGCTACGACCCGTATTCGCACCGACAC,-0.388 ± 0.14,-0.929 ± 0.16
ACATTTGTTGATACAACCATAAAAGGATAATTACCCCCATCAATTGATAATTATCCCACCCCATTTAACTATAACGCTCTGATCATAGTCAGACCAACATTGCTACGACCCGTATTCGCACCGACAC,-0.233 ± 0.32,-2.87 ± 0.26
ACATTTGTTGATACAACCATAAAATGATAATTACAACCATATATTGATATCTCTCACAACCATAAGTTGATATTTTCTCTGATCATAGTCAGACCAACATTGCTACGACCCGTATTCGCACCGACAC,-0.141 ± 0.5,-0.374 ± 0.19
ACATTTGTTGATACAACCATTTAATGATAATAACACCCATAAAATGATAATTATCACACCCAATTTAACTATAACGCTCTGATCATAGTCAGACCAACATTGCTACGACCCGTATTCGCACCGACAC,2.01 ± 0.13,-1.14 ± 0.26
ACATTTGTTGATACAACCATAAGTTGATATTTTCACCCATAAATTGATATTGCTCACACCCATAAATTGATATTGCCTCTGATCATAGTCAGACCAACATTGCTACGACCCGTATTCGCACCGACAC,0.258 ± 0.12,-0.468 ± 0.17
ACATTTGTTGATACAACCATAAAATGATAATTAATAATTCACCCATAAATTGATAATTATCAACAAACGCCCGGTCGCGGTACTCTGATCATAGTCAGACCAACATTGCTACGACCCGTATTCGCAC,1.02 ± 0.13,-1.96 ± 0.21
ACATTTGTTGATACAACCATAAAATGATAATTCACCCATAAATTGATAATTATCACACCCATAAATTGATATTGCCTCTGATCATAGTCAGACCAACATTGCTACGACCCGTATTCGCACCGACACT,-0.727 ± 0.39,-1.27 ± 0.026
ACATTTGTTGATACAACCATAAAATGATAATTACACCCATAAATTGATAATTATCACACAACGAAATTGATATTGCCTCTGATCATAGTCAGACCAACATTGCTACGACCCGTATTCGCACCGACAC,2.18 ± 0.14,-0.936 ± 0.18
ACATTTGTTGATACAACCATAAAATGATAATTACACCCATAAATTGATAATTATCACACCCATACCGGTCGCGGTAAGAGGATCATAGTCAGACCAACATTGCTACGACCCGTATTCGCACCGACAC,2.44 ± 0.13,-0.58 ± 0.031
ACATTTGTTGATACAACCATAAAATGATAATTACTCTGATCATAGTCAGACCAACATTGCTACGACCCGTATTCGCACCGACACAACGACTATCACCCATAAATTGATAATTATCAGTGGGTATTTA,2.166 ± 0.019,-1.16 ± 0.15
ACATTTGTTGATACAACCATAAAATGATAATTCCACCCATACATTGATAATTATCACACCCAATTTAACTATAACGCTCTGATCATAGTCAGACCAACATTGCTACGACCCGTATTCGCACCGACAC,0.785 ± 0.032,-2.42 ± 0.38
ACATTTGTTGATACAACCATAAAATGATAATTACACCCATAAATGGATAATTATCACCCCCAATTTAACTATAACGCTCTGATCATAGTCAGACCAACATTGCTACGACCCGTATTCGCACCGACAC,1.64 ± 0.048,-1.3 ± 0.18
ACATTTGTTGATACAACCATAAAATGATAAAATCACCCATAAATTGATAAAATTCACACCCATAAATTGATATACGCTCTGATCATAGTCAGACCAACATTGCTACGACCCGTATTCGCACCGACAC,-0.368 ± 0.21,-1.05 ± 0.087
ACATTTGTTGATACACCCATAAATTGATATTGCCACCCATAAATTGATAATTATCACAACCATAAGTTGATATTTTCTCTGATCATAGTCAGACCAACATTGCTACGACCCGTATTCGCACCGACAC,-0.238 ± 0.32,-0.676 ± 0.16
ACATTTGTTGATACAACCATAAAATGATAATTAGACCCCATAATTGATAATTATCACACCCATAAATTGATATTGCCTCTGATCATAGTCAGACCAACATTGCTACGACCCGTATTCGCACCGACAC,-3.27 ± 0.54,-3.4826 ± 0.0031
ACATTTGTTGATATGCAACCATAAAATGATAATTACACCCATAAATTGATAATTATCACACCCATAAATTGATATTGCCTCTGATCATAGTCAGACCAACATTGCTACGACCCGTATTCGCACCGAC,-7.72 ± 1.2,-6.537 ± 0.019
ACATTAGTTCATACAACCATAAAATGATAATTACACCCATAAATGGATCATTATCACACCCAATTTAACTATAACGCTCTGATCATAGTCAGACCAACATTGCTACGACCCGTATTCGCACCGACAC,-7.73 ± 1.7,-7.359 ± 0.025
